Paper PMC10652518, “Enzyme kinetics of deoxyuridine triphosphatase from Western corn rootworm” (BMC Research Notes, 2023)

Tests used:
[1] = test system: T1, O=c1ccn([C@H]2C[C@H](O)[C@@H](COP(=O)(O)OP(=O)(O)OP(=O)(O)O)O2)c(=O)[nH]1; test: cresol red proton-release assay, stopped-flow spectrophotometer, integrated Michaelis-Menten fit; format: biochemical, Diabrotica virgifera; details: 50 nM enzyme, 1 mM dUTP; activity prevented by EDTA
T1 construct: starts at residue 25; R89K to prevent secondary thrombin cleavage; N-terminal 6-His tag cut by thrombin; codon-optimized synthetic gene in pET-15, E. coli; trimer (48 kDa by SEC)
Text: cresol red proton-release assay, stopped-flow spectrophotometer, integrated Michaelis-Menten fit on WCR dUTPase

[2] = molecular target: the molecule itself; test: SEC; Superdex matrix, molecular weight calibrated with the BioRad SEC standard; tag-free dUTPase, estimated 48 kDa against 15.6 kDa on SDS-PAGE

Molecule: WCR dUTPase (Diabrotica virgifera virgifera; R89K)
- Km [1]: 0.7 ± 0.1 µM
- kcat [1]: 30 ± 0.5 s⁻¹
- kcat/Km [1]: 4e+07 M⁻¹ s⁻¹

B1: Western corn rootworm (Diabrotica virgifera virgifera) deoxyuridine 5'-triphosphate nucleotidohydrolase (dUTPase), construct from residue 25 with Arg89Lys, … (enzyme, UniProt A0A6P7FUX9 25-168, looked up)
chain: GANILLKYTKVIEEAYPPTKGSVKAAGYDLKSAHDVVVPARGKALVDTGLKIELPEGCYGRIAPKSGLAVKNFIDVGAGVVDEDYRGLLKVVLFNHSDNDFEVKSGDRIAQLICERIFYPELEEVKELTDTARGEGGFGSTGTQ
notes: dUTPase of Diabrotica virgifera virgifera LeConte (protein XP_028136545; UniProt ID A0A6P7FUX9_DIAVI); the construct starts at the 25th residue of the WCR dUTPase; Arg89 changed to Lys to prevent secondary thrombin cleavage; Cloned into pET-15 by NcoI and XhoI; also called WCR dUTPase; product of WCR DUT; source: E. coli, purified (Ni-NTA, HiTrap Q; His-tag removed with human alpha-thrombin, …)
- stoichiometry N [2]: 3
